Measured values from the nanobody polyreactivity screen of Harvey et al. (2022).

Assay: yeast display, Sf9 membrane polyspecificity reagent, FACS + sequencing; frameworks hold sequencing errors
How it was run: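 A nanobody's polyreactivity label depends on the gate it was sorted from. Yeast display cells were stained with 10% biotinylated, detergent-solubilized Sf9 membrane reagent for 1 hour at 4 °C, enriched on streptavidin microbeads and sorted by FACS. The low and high (top ~1%) gates were set on anti-HA fluorescence for expression and streptavidin fluorescence for reagent binding.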

| Sequence | polyreactivity (PSR sort gate) |
| --- | --- |
| QVQLVESGGGLVQSGGSLRLSCAASGSIFSYYAMGWYRQAPGKEREFVAPHSRSGGSTYYADSVKGRFTISRDNGKNTVYLQMKSLKPEDTAVYYCNAYSYSDAGDDGDYWGQGTQVTVSS | low polyreactivity |
| QVQLVESGGGLVQSGGSLRLSCAASGSILYGYAMGWYRQAPGKERELVAAIRWTGGSTYYADSVKGRFTISRDNAKNTVYLQMNSLKPEDTAVYFCAAEYNLRTYWGDYWGQGTQVTVSS | low polyreactivity |
| QVQLVESGGGLVQSGGSLRLSCAASGSTFDYNAMGWYRQPPGKERELVAAINSGASTYYADSVKGRFTISRDNAKNTVYLLMNSLKPEDTAVYYCAKDYLYIGDYWGQGTQVTVSS | low polyreactivity |
| QVQLVESGGGLVQSGGSLRLSCAASGSTFHTYAMGWYRQAPGKERELFASIRTSGGSTNADSVKGRFTISRDNAKNTVYLQMNSLNPEDTAVYYCAAYYFYGLYDAYYYWGQGTEVTVSS | low polyreactivity |
| QVQLVESGGGLVQSGGSLRLSCAASGSTFLWYAMGWYRPAPGKERELVASISRGGGTDYADSVKGRFTISRDNAKKTVYLQMNSLIPEDTAVYYCAATGVYRYDHWGQGTQVTVSS | low polyreactivity |
| QVQLVESGGGLVQSGGSLRLSCAASGSTFNGYAMGWYRQAPGKERELVAGITGSGGSTYYADSVKGRFTISRDNAKNTVYLQMNSLKPEDTAVYYCKAVHWGGSYWGLDYWGQGTQVTVSS | low polyreactivity |
| QVQLVESGGGLVQSGGSLRLSCAASGSTSINYAMGWYRQAPGKERELVATISRGGSTTYADSVKGRFTISRDNAKNTVYLQMNSLKPEATAVYYCAKDRYPADEDYWGQGTQVTVSS | low polyreactivity |
| QVQLVESGGGLVQSGGSLRLSCAASGYIFGYYAMGWYRQAPGKERELVAAITGTDDTNYADSVKGRFTISRDNAKNTVYLQMNSLIPEDTAVYYCAAYSWWNEYDYWGQGTQVTVSS | high polyreactivity |
| QVQLVESGGGLVQSGGSLRLSCAPSGRIFAGYTMGCYRQAPGKERELVAAISWSGGRTYYADSVKGRFTISRDNAKNTVYLQMNSLKPEDTAVYYCAVGFRTLHGDYGYWGQGTQVTVSS | high polyreactivity |
| QVQLVESGGGLVQSGGSLRLSCCACGRIFYSYSMGRYRQAPGKDRELVAANTCRGGSTYYADSVKGRFTISRDNAKNPVYLQMIRLKPEDTAVSYCATSSHTPYYSYIVERIHYDYWGQGTQVTVSS | high polyreactivity |
| QVQLVESGGGLVQSGGSLRLSCDPSGSIFSHNAMGWYRQAPGKERELVAAITASSGSTYYADSVKGRFTISRDNAKNTVYLQMNSLKPEVNAVYFCARVSRKRHQQDGKYGYWGQGTQVTVSS | high polyreactivity |
| QVQLVESGGGLVQSGGSLRLTCAASGRTFPYYAMGWYRQAPGKERELVAAISRRGGSTYYADSVKGRFTISRDNAMNTVYLQMNSLKPEDTAVYYCAAAGGVSGGEYDYWGQGTQVTVSS | high polyreactivity |
| QVQLVESGGGLVQSGVSLRLSCAASGIIFFSNTMGWYRQAPGKEREFVAAITWSTGNTYYADSVKGRFTISRDNAKNTVYLQMNSLKPEDTAVYYCYAEFLVITWYGGVEFDYWGQGTQVTVSS | low polyreactivity |
| QVQLVESGGGLVQVGGSLRLSCAASGGIFSGNAMGWSRPAPGKERELVAGITNGGRTTYADSVKGRFTISRDNAKNTVYLQMNSLKPEDTAVYYCNVYVSAGEEDEYWGQGTQVTVSS | low polyreactivity |
| QVQLVESGGGLVQVGGSLRLSCAASGITLSYYAMGWYRQAPGKEREFVASITVSRTSTYYADSVKGRFTISRDNAKNTVYLQMNSLKPEDTAVYYCAAYAYQYRFSGYGYWGQGTQVTVSS | low polyreactivity |
| QVQLVESGGGLVQVGGSLRLSCAASGITLTYYALGWYRQAPGKERELVAAIDSGGTTHYADSVKGRFTISRDNAKNTVYLQMNSLKPEDTAVYYCAARPTRGHWWYGYWGQGTQVTVSS | low polyreactivity |
| QVQLVESGGGLVQVGGSLRLSCAASGRTFWWYAMGWYRQAPGKERELVAAITRSGGSTYYADSVKGRFTISRDNAKYTVYLQMNSLKQEDTAVYYCAASHYGLLEYWGQGTQVTVSS | low polyreactivity |
| QVQLVESGGGLVQVGGSLRLSCAASGRTFYRYAMGWYRQAPGKERELVATINWTSGSTYYADSVKGRFTISRDKAKNTVYLQMNSLKPEDTAVYYCATVPHGKDTFGYWGQGTQVTVSS | high polyreactivity |
| QVQLVESGGGLVRAGGSLRLSCAASGRNKDNVMGWYRQAPGKERELVAAITRSAGRTYYADSVKGRFTISRDNAKNTVYLQMNSLIPEDTAVYYFATADAHYSAAGEDYWGQGTQVTVSS | low polyreactivity |
| QVQLVESGGGLVRAGGSLRLSCAASGSTFDINAMGWYRQAPGKERELVASITFSGGSTYYADSVKGRFTISRDNAKNTVYLQMNSLKPEDTAVYYCNKDEPQFSSYLYSFYPGYDYWGQGTQVTVSS | low polyreactivity |
| QVQLVESGGGLVRARGSLRLSWAASGNTFSSNAMGWYRQAPGKERELVAGITKSGGRTYYADSVKGSFTISRDNAKNTVYLQMNSLKPEDTAVYYCNRRACPYSIPYYYWGQGTQVTVSS | high polyreactivity |

| Sequence | polyreactivity (PSR sort gate) |
| --- | --- |
| QVQLVESGGGRDQAGGSLRLSCAASGLTSYSNAMGWFRQAPGKERELVAAISRSGGSTYYADSVKGRFTISRDTAKNSVYLQMISLKAEDSAFYYCAASIWVYLLGGGYSDYDYWGQGTQETVSS | low polyreactivity |
| QVQLVESGGGRVQAGGRIRLRCAASGLIFPGYDMGWYSPAPGKERELVAAISDSGANTYYADSVKGRFTISRDNAKNTVYLQMTSLKQEDTAVYYCAADSSWWYGTSFGRFDYWGQGTQVTVSS | low polyreactivity |
| QVQLVESGGGSVQAGGRLRLSCAASGLIFAGYARGWYRQSPGKERELVAASSTSGGRTYYADSVKGRFTISRDNAKNTVYLQINSLTPEDTAVYYCAAYPVHGKTQELAKEDYWGQGTQVTVSS | high polyreactivity |
| QVQLVESGGGSVQAGGSLRLICAASGSTFSDYDMGWYRQAPGKERELVAAISIGGRTNYADSVKGRFTISRDNAKNTVYLQMNSLKPEDTAVYDCAADSQSIYAYWPGGGYGYWGQGTQVTLSS | low polyreactivity |
| QVQLVESGGGSVQAGGSLRLSCAASGIIFWYYTMGWYRQAPGKERELVAAISWSSGITYYADSVKGRFTISRDNAKNTVYLQMNSLKPEDTAVYYCAAAVSPHSEGFGEYNYWGQGTQVTVSS | low polyreactivity |
| QVQLVESGGGSVQAGGSLRLSCAASGSIYYYAMGWYIQAPGKERELVAAISRSGGSTYYADSVKGRFTISRDNAKNTVYLQMNCLKPEDTAVYYCAKGYRGYSYGYCGQGTQVTVSS | high polyreactivity |
| QVQLVESGGGSVQAGGSLRLSCAASGYIFGVYDMGWYRQAPGKERELVAAISSGGSTNYADSVKGRFTISRDNAKNTVYLQMNSLKPEDTAVYYCNADYIFYYEYDYWGQGTQVTVSS | low polyreactivity |
| QVQLVESGGGVDQAGGSLRLSCAASGSTFHLYAMGCYRQAPGKERESVAAIRGRGGNTYADSVKGRFTISRDNAYNTVYLQMNSLKPEDTAVYYCAAPLLRDLRSPYSYNYWVQGTQVTVSS | low polyreactivity |
| QVQLVESGGGVDQAGVSLRLSCAASGIICFGYAMGWYRQAPGNERELVARITRSGASTYYADSVKGRFTISRDNAKKTVYLQMYSLTPEDTPVSYCAADYRKRYDYWGQGTQVTVSS | low polyreactivity |
| QVQLVESGGGVGQAGGSLRLSCAASGSNFKYYAMGWYRPAPGKERELVAVITSGGSTYYADSVKGRFTISRDNAKNTVYLQMNSLKPEDTAVYDCAAGVRAYNWGEYDYWGQGTQVTVSS | low polyreactivity |
| QVQLVESGGGVVEAGGSLRLSCAASGSTLGFYARGWYRQAPGKEWEFVAAITRSGTSTYYADSVKGRFTISRDNAKNTVYLQMTSLKPEDTAVYYCPAESYYGVPYDSWGQGTQVTLSS | high polyreactivity |
| QVQLVESGGGVVQAGGGLRLSCAASGRTFIGNAMGWYRQAPGKEREFVAYITLSGGSTYYADSVKGRFTISRDNATINVYLQMNSLKPEDRAVYYCADKRFFGYLGYNRGGSRYDYWGQGTQVTVSS | high polyreactivity |
| QVQLVESGGGVVQAGGMLRLSCAASGTTFDVYAMGGYRQAPGKEREFVAAITTSGGSTYYADSVKGRFSISRDNAKNTVYLEMYSLKPEVTAVYYCAAVWWKSFQGSSYRMNYWGQGTQVTVSS | high polyreactivity |
| QVQLVESGGGVVQAGGRLRLSCAASGRILPFYAMGWYRQETGKERELVPGITTGTSTTYADSVNGRFTISRDNAKNTVYFQMHSLKPEDTAVYYCNTLVVPYTDFNTSYNVDYWGQGTQVTVSS | low polyreactivity |
| QVQLVESGGGVVQAGGSHRLSCAASGRTFRGNAMGWYRQAPGTERELVATITCSGGSTYYADSVKGRFTISRDNAKNTGYLQMNSLKPEDTAGYAGAVRGLHLVWVPFGYDYWRQGTQVTVSS | low polyreactivity |
| QVQLVESGGGVVQAGGSHRLSCAASGSIFSSDAMGWYRQAPGKEREFVAAISSSGDSTYADSVKGRFTISRDNAKNTVYLQINSLKPEDTAVYYCAVGGAGSDDYWGPGTQVTVSS | low polyreactivity |
| QVQLVESGGGVVQAGGSLGLSCAASGGIFAPYPMGWNRQAPGKERELAAAISSSDGSTYYADSVKGRFTISRDNAKNTVYLQMNSLKTEDTAVYYCAADYREDYGYWGQGTQVTVSS | low polyreactivity |
| QVQLVESGGGVVQAGGSLGLSCAASGRIFDVNAMGWYRQAPGKERELVAAITYSDGSTYYADSVKGRFTISRDIAKNTVYLQMNSLKPEDTAVYYCAATQEPVTPQPYGYWGQGTQVTVSS | low polyreactivity |
| QVQLVESGGGVVQAGGSLRLSCAASGFIFWLYAMGRYRQAPGKERELVATITYSDGSTYYADSVKGRFTISRDKANNTDYLQMNSLKPEDTAVYYCAAEVYYGYDYWGQGTQVTVSS | low polyreactivity |
| QVQLVESGGGVVQAGGSLRLSCAASGFIIARNAMGWYRQAPGKERELVAAISASGGRTYYSDSEKGRFTISRDNAKNTVYLQMNSLKPEDTAVYYCAARRDGRSGSYNYWGQGTQVTVSS | high polyreactivity |
